Data taken from patent publication US20200024330A1.

Legend:
Assay in all cases: cell-based or functional assay
[1] = molecular target: HIV-1 Env of isolate 92WR021 (HIV-1)
[2] = molecular target: HIV-1 Env of isolate 94KE105 (subtype AC), on pseudovirus (HIV-1)
[3] = molecular target: HIV-1 Env of isolate APV-13 (pseudovirus) (HIV-1 isolate APV-13, subtype B)
[4] = molecular target: HIV-1 Env of isolate CAAN.A2 (HIV-1)
[5] = molecular target: HIV-1 Env of isolate CMU02 (CRF01_AE), on pseudovirus (HIV-1)
[6] = molecular target: HIV-1 Env of isolate MGRM-A-008 (clade A), on pseudovirus (HIV-1)
[7] = molecular target: HIV-1 Env of isolate MGRM-AG-011 (CRF_AG), on pseudovirus (HIV-1)
[8] = molecular target: HIV-1 Env of isolate MGRM-C-015 (HIV-1)
[9] = molecular target: HIV-1 Env of isolate MGRM-C-022 (HIV-1)
[10] = molecular target: HIV-1 Env of isolate MGRM-C-023 (HIV-1)
[11] = molecular target: HIV-1 Env of isolate MGRM-C-024 (HIV-1)
[12] = molecular target: HIV-1 Env of isolate MGRM-D-012 (HIV-1)
[13] = molecular target: HIV-1 Env of isolate MGRM-D-029 (subtype D), on pseudovirus (HIV-1)
[14] = molecular target: HIV-1 Env of isolate SF162 (HIV-1) (UniProt P19550)
[15] = molecular target: HIV-1 Env of isolate TRO.11 (HIV-1)
[16] = molecular target: HIV-1 JR-CSF Env F468A (HIV-1 (isolate JR-CSF)) (UniProt P20871)
[17] = molecular target: HIV-1 JR-CSF Env L179A (HIV-1 (isolate JR-CSF)) (UniProt P20871)
[18] = molecular target: HIV-1 JR-CSF Env Y177A (HIV-1 (isolate JR-CSF)) (UniProt P20871)
[19] = molecular target: HIV-1 Env of isolate MGRM-G-009 (subtype G) (HIV-1)
[20] = molecular target: HIV-1 Env of isolate MGRM-G-015 (subtype G) (HIV-1)
[21] = molecular target: HIV-1 Env of isolate MG RM-AG-012 (HIV-1)
[22] = molecular target: HIV-1 Env of isolate MG RM-D-001 (subtype D) (HIV-1)
[23] = molecular target: HIV-1 Env of isolate MG RM-D-002 (subtype D) (HIV-1)
[24] = molecular target: HIV-1 Env of isolate MG RM-D-018 (subtype D) (HIV-1)
[25] = molecular target: HIV-1 Env of isolate MGRM-C-008 (pseudovirus) (HIV-1 isolate MGRM-C-008, subtype C)
[26] = molecular target: HIV-1 Env of isolate MGRM-C-009 (pseudovirus) (HIV-1 isolate MGRM-C-009, subtype C)
[27] = molecular target: HIV-1 MGRM-Chronic-B-004 Env (pseudovirus) (HIV-1)
[28] = molecular target: HIV-1 MGRM-Chronic-B-011 Env (pseudovirus) (HIV-1)
[29] = molecular target: HIV-1 MGRM-Chronic-B-018 Env (pseudovirus) (HIV-1)
[30] = molecular target: HIV-1 PVO.4 Env (pseudovirus) (HIV-1)
[31] = molecular target: HIV-1 94UG103 envelope protein (Env) on pseudovirus (HIV-1)
[32] = molecular target: HIV-1 Env of isolate 92UG046 (clade D) (HIV-1)
[33] = molecular target: HIV-1 Env of isolate MGRM-D-013 (clade D) (HIV-1)
[34] = molecular target: HIV-1 Env of isolate MGRM-G-017 (clade G pseudovirus) (HIV-1)
[35] = molecular target: HIV-1 MGRM-A-014 envelope glycoprotein (Env) (HIV-1)
[36] = molecular target: HIV-1 MGRM-D-018 envelope glycoprotein (Env) on pseudovirus (HIV-1)
[37] = molecular target: HIV-1 MGRM-F1-014 Env (pseudovirus) (HIV-1)
[38] = molecular target: HIV-1 MGRM-F1-018 Env (pseudovirus) (HIV-1)

Sequence of 5329_C19 (PGT-136) (antibody) (VH): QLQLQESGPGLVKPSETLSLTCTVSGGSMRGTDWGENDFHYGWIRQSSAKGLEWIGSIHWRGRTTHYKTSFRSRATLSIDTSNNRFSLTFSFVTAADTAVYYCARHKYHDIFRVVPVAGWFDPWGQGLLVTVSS
Sequence of 5329_C19 (PGT-136) (antibody) (VL): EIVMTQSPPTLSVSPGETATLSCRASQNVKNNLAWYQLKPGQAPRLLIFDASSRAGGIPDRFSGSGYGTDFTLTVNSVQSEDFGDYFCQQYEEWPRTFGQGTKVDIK
Sequence of PGT-141 (4964_G22; 4993_K13) (antibody) (VH): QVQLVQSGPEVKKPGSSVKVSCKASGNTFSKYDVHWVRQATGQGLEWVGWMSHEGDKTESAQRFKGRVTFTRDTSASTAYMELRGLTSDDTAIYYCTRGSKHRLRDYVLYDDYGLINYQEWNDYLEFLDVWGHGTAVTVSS
Sequence of PGT-141 (4964_G22; 4993_K13) (antibody) (VL): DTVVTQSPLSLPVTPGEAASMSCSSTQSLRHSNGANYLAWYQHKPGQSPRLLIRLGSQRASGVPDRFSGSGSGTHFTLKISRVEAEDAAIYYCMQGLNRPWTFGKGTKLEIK

Substance: 5136_H01 (PGT-131) (antibody)
- neutralization IC50 [1]: 0.012 µg/mL
- IC50, single-round pseudovirus neutralization [2]: 0.013 µg/mL
- IC50 (µg/mL) neutralization [3]: 0.189 µg/mL
- IC50 [4]: > 50 µg/mL
- IC50, single-round pseudovirus neutralization [5]: > 50 µg/mL
- IC50, single-round pseudovirus neutralization [6]: > 50 µg/mL
- IC50, single-round pseudovirus neutralization [7]: > 50 µg/mL
- IC50 [8]: 1.01 µg/mL
- IC50 [9]: 0.78 µg/mL
- IC50 [10]: 0.143 µg/mL
- IC50 [11]: > 50 µg/mL
- IC50 [12]: > 50 µg/mL
- IC50, pseudovirus neutralization [13]: > 50 µg/mL
- IC50 [14]: 0.025 µg/mL
- IC50 [15]: 1.91 µg/mL
- Fold IC50 increase relative to wild-type [16]: 1.6 fold
- Fold IC50 increase relative to wild-type [17]: 4.8 fold
- Fold IC50 increase relative to wild-type [18]: 5.3 fold

Substance: PGT-141 (4964_G22; 4993_K13) (antibody)
- neutralization IC50 [19]: 1.89 µg/mL
- neutralization IC50 [20]: > 50 µg/mL

Substance: 5145_B14 (PGT-127) (antibody)
- neutralization IC50 [21]: > 50 µg/mL
- IC50 (µg/mL), pseudovirus neutralization [22]: 2.23 µg/mL
- IC50 (µg/mL), pseudovirus neutralization [23]: 0.6 µg/mL
- IC50 (µg/mL), pseudovirus neutralization [24]: 0.021 µg/mL
- IC50 (µg/mL) neutralization [25]: > 50 µg/mL
- IC50 (µg/mL) neutralization [26]: > 50 µg/mL
- Fold IC50 increase relative to wild-type [16]: 3 fold
- Fold IC50 increase relative to wild-type [17]: 2.5 fold
- Fold IC50 increase relative to wild-type [18]: 2.9 fold
- IC50, pseudovirus neutralization [27]: 18 ng/mL
- IC50, pseudovirus neutralization [28]: 0.297 µg/mL
- IC50, pseudovirus neutralization [29]: 1.9 µg/mL
- IC50, pseudovirus neutralization [30]: 0.164 µg/mL

Substance: 5329_C19 (PGT-136) (antibody)
- neutralization IC50 [1]: > 50 µg/mL
- IC50, single-round pseudovirus neutralization [2]: > 50 µg/mL
- IC50 (µg/mL) neutralization [3]: > 50 µg/mL
- IC50 [4]: > 50 µg/mL
- IC50, single-round pseudovirus neutralization [5]: > 50 µg/mL
- IC50, single-round pseudovirus neutralization [6]: > 50 µg/mL
- IC50, single-round pseudovirus neutralization [7]: > 50 µg/mL
- IC50 [8]: 11.1 µg/mL
- IC50 [9]: > 50 µg/mL
- IC50 [10]: 3.2 µg/mL
- IC50 [11]: > 50 µg/mL
- IC50 [12]: > 50 µg/mL
- IC50, pseudovirus neutralization [13]: > 50 µg/mL
- IC50 [14]: 0.482 µg/mL
- IC50 [15]: 0.073 µg/mL

Substance: PGT-121 (antibody)
- IC50 (µg/mL), pseudovirus neutralization [1]: 0.009 µg/mL

Substance: 4838_L06 (PGT-121) (antibody)
- neutralization IC50 [21]: > 50 µg/mL
- IC50 (µg/mL), pseudovirus neutralization [22]: 0.615 µg/mL
- IC50 (µg/mL), pseudovirus neutralization [23]: 0.006 µg/mL
- IC50 (µg/mL), pseudovirus neutralization [24]: 0.005 µg/mL
- IC50 (µg/mL) neutralization [25]: 0.012 µg/mL
- IC50 (µg/mL) neutralization [26]: > 50 µg/mL
- IC50, pseudovirus neutralization [27]: 9 ng/mL
- IC50, pseudovirus neutralization [28]: > 50 µg/mL
- IC50, pseudovirus neutralization [29]: > 50 µg/mL
- IC50, pseudovirus neutralization [30]: 0.137 µg/mL

Substance: 1496_C09 (PG9) (TCN-109) (antibody)
- neutralization IC50 [31]: 0.173 µg/mL
- IC50 (µg/ml), pseudovirus neutralization [32]: 0.64 µg/mL
- IC50 (µg/mL), pseudovirus neutralization [12]: 16.2 µg/mL
- IC50 (µg/ml), pseudovirus neutralization [33]: 0.06 µg/mL
- neutralization IC50 [19]: 10.7 µg/mL
- neutralization IC50 [20]: 6.6 µg/mL
- IC50 (µg/ml), pseudovirus neutralization [34]: 0.03 µg/mL
- IC50 (µg/ml), pseudovirus neutralization [35]: 0.62 µg/mL
- IC50 (ug/ml), neutralizing activity [36]: 2.04 µg/mL
- IC50 neutralization [36]: 0.0444 µg/mL
- IC80, neutralization [36]: 0.18 µg/mL
- IC90, neutralization [36]: 0.43 µg/mL
- IC95, neutralization [36]: 1.05 µg/mL
- IC50 (µg/ml), pseudovirus neutralization [37]: 0.01 µg/mL
- IC50 (µg/ml), pseudovirus neutralization [38]: 0.03 µg/mL

Substance: 4877_D15 (PGT-122) (antibody)
- neutralization IC50 [21]: > 50 µg/mL
- IC50 (µg/mL), pseudovirus neutralization [22]: 1.13 µg/mL
- IC50 (µg/mL), pseudovirus neutralization [23]: 0.005 µg/mL
- IC50 (µg/mL), pseudovirus neutralization [24]: 0.007 µg/mL
- IC50 (µg/mL) neutralization [25]: 0.028 µg/mL
- IC50 (µg/mL) neutralization [26]: > 50 µg/mL
- IC50, pseudovirus neutralization [27]: 8 ng/mL
- IC50, pseudovirus neutralization [28]: > 50 µg/mL
- IC50, pseudovirus neutralization [29]: > 50 µg/mL
- IC50 (ug/ml), neutralizing activity [36]: 0.0115 µg/mL
- IC50, pseudovirus neutralization [30]: 0.689 µg/mL

Substance: 5343_B08 (PGT-135) (antibody)
- neutralization IC50 [1]: > 50 µg/mL
- IC50, single-round pseudovirus neutralization [2]: 0.063 µg/mL
- IC50 (µg/mL) neutralization [3]: 0.716 µg/mL
- IC50 [4]: 5.15 µg/mL
- IC50, single-round pseudovirus neutralization [5]: > 50 µg/mL
- IC50, single-round pseudovirus neutralization [6]: > 50 µg/mL
- IC50, single-round pseudovirus neutralization [7]: > 50 µg/mL
- IC50 [8]: 0.104 µg/mL
- IC50 [9]: > 50 µg/mL
- IC50 [10]: 0.051 µg/mL
- IC50 [11]: > 50 µg/mL
- IC50 [12]: > 50 µg/mL
- IC50, pseudovirus neutralization [13]: 30.8 µg/mL
- IC50 [14]: 0.023 µg/mL
- IC50 [15]: 0.03 µg/mL
- Fold IC50 increase relative to wild-type [16]: 1.1 fold
- Fold IC50 increase relative to wild-type [17]: 1.2 fold
- Fold IC50 increase relative to wild-type [18]: 0.3 fold
